T1: HPV35 E7 protein, recombinant (His-TEV-E7 fusion from E. coli) (Human Papilloma Virus type 35 (HPV35), UniProt P27230 1-99, CKII phosphorylation of the consensus site serines in the antigen preparation of Example 2)
T1 construct: mature; also called VE7_HPV35; not shown: N-terminal 6x Histidine tag and TEV cleavage site of the vector
T1 sequence: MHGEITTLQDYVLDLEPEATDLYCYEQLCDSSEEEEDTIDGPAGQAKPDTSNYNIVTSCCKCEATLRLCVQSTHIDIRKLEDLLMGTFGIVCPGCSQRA

T2: HPV58 E7 protein, recombinant (His-TEV-E7 fusion from E. coli) (Human Papilloma Virus type 58 (HPV58), UniProt P26557 1-98, CKII phosphorylation of the consensus site serines in the antigen preparation of Example 2)
T2 construct: mature; also called VE7_HPV58; not shown: N-terminal 6x Histidine tag and TEV cleavage site of the vector
T2 sequence: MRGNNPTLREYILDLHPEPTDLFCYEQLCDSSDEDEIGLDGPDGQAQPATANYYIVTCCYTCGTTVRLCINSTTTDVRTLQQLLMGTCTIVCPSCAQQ

T3: HPV52 E7 protein, recombinant (His-TEV-E7 fusion from E. coli) (Human Papilloma Virus type 52 (HPV52), UniProt P36831 1-99, CKII phosphorylation of the consensus site serines in the antigen preparation of Example 2)
T3 construct: mature; also called VE7_HPV52; not shown: N-terminal 6x Histidine tag and TEV cleavage site of the vector
T3 sequence: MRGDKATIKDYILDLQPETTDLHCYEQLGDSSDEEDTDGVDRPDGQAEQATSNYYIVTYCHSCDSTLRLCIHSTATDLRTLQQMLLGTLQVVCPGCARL

T4: HPV38 E7 protein (beta-papillomavirus), recombinant (His-TEV-E7 fusion from E. coli) (Human Papilloma Virus type 38 (HPV38), UniProt Q80908 1-100)
T4 construct: mature; also called HPVE7 38; VE7_HPV38; not shown: N-terminal 6x Histidine tag and TEV cleavage site of the vector
T4 sequence: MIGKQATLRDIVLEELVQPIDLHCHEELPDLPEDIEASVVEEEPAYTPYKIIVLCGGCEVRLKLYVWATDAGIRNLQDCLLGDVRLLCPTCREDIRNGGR

T5: HPV6 E7 protein (low risk type), recombinant (His-TEV-E7 fusion from E. coli) (Human Papilloma Virus type 6 (HPV6), UniProt Q84292 1-98)
T5 construct: mature; the only HPV6 entry in the list of constructs is VE7_HPV6A; also called VE7_HPV6A; not shown: N-terminal 6x Histidine tag and TEV cleavage site of the vector
T5 sequence: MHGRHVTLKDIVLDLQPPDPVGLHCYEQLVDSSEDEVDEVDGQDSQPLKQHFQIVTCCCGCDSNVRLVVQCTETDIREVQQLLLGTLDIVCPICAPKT

T6: HPV11 E7 protein (low risk type), recombinant (His-TEV-E7 fusion from E. coli) (Human Papilloma Virus type 11 (HPV11), UniProt P04020 1-98)
T6 construct: mature; also called VE7_HPV11; not shown: N-terminal 6x Histidine tag and TEV cleavage site of the vector
T6 sequence: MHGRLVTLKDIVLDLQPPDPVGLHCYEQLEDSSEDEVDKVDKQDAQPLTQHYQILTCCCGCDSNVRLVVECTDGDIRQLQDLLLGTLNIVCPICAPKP

T7: HPV5 E7 protein (beta-papillomavirus), recombinant (His-TEV-E7 fusion from E. coli) (Human Papilloma Virus type 5 (HPV5), UniProt P06932 1-103)
T7 construct: mature; also called VE7_HPV05; not shown: N-terminal 6x Histidine tag and TEV cleavage site of the vector
T7 sequence: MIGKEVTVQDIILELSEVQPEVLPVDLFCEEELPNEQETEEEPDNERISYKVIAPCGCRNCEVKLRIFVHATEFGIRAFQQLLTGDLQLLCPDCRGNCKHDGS

T8: HPV45 E7 protein, recombinant (His-TEV-E7 fusion from E. coli) (Human Papilloma Virus type 45 (HPV45), UniProt P21736 1-106, CKII phosphorylation of the consensus site serines in the antigen preparation of Example 2; biotin on primary amines in the SPR assay)
T8 construct: mature; also called VE7_HPV45; not shown: N-terminal 6x Histidine tag and TEV cleavage site of the vector
T8 sequence: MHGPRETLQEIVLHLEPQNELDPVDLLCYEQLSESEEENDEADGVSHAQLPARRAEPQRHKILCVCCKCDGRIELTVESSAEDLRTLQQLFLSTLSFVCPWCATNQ

T9: HPV18 E7 protein, recombinant (His-TEV-E7 fusion from E. coli) (Human Papilloma Virus type 18 (HPV18), UniProt P06788 1-105, CKII phosphorylation of the consensus site serines in the antigen preparation of Example 2; biotin on primary amines in the SPR assay)
T9 construct: mature; also called VE7_HPV18; not shown: N-terminal 6x Histidine tag and TEV cleavage site of the vector
T9 sequence: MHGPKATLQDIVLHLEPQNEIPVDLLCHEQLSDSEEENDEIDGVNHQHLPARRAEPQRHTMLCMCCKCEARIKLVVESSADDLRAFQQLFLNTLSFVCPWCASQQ

T10: HPV56 E7 protein, recombinant (His-TEV-E7 fusion from E. coli) (Human Papilloma Virus type 56 (HPV56), UniProt P36833 1-105, CKII phosphorylation of the consensus site serines in the antigen preparation of Example 2)
T10 construct: mature; also called VE7_HPV56; not shown: N-terminal 6x Histidine tag and TEV cleavage site of the vector
T10 sequence: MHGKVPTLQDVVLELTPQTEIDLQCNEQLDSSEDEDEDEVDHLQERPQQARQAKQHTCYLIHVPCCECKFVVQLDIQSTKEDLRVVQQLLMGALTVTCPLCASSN

T11: HPV51 E7 protein, recombinant (His-TEV-E7 fusion from E. coli) (Human Papilloma Virus type 51 (HPV51), UniProt P26558 1-101, CKII phosphorylation of the consensus site serines in the antigen preparation of Example 2)
T11 construct: mature; also called VE7_HPV51; not shown: N-terminal 6x Histidine tag and TEV cleavage site of the vector
T11 sequence: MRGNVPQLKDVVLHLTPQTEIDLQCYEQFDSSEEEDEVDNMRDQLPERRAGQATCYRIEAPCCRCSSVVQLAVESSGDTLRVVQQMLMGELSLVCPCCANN

T12: HPV31 E7 protein, recombinant (His-TEV-E7 fusion from E. coli) (Human Papilloma Virus type 31 (HPV31), UniProt P17387 1-98, CKII phosphorylation of the consensus site serines in the antigen preparation of Example 2)
T12 construct: mature; also called VE7_HPV31; not shown: N-terminal 6x Histidine tag and TEV cleavage site of the vector
T12 sequence: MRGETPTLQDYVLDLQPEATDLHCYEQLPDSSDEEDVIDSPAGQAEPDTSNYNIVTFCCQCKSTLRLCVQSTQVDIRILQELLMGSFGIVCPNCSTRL

T13: HPV33 E7 protein, recombinant (His-TEV-E7 fusion from E. coli) (Human Papilloma Virus type 33 (HPV33), UniProt P06429 1-97, CKII phosphorylation of the consensus site serines in the antigen preparation of Example 2; biotin on primary amines in the SPR assay)
T13 construct: mature; also called VE7_HPV33; not shown: N-terminal 6x Histidine tag and TEV cleavage site of the vector
T13 sequence: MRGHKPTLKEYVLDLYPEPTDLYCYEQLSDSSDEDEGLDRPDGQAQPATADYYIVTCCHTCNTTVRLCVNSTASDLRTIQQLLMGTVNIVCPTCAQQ

B1: ACAB337 (antibody, IgG1, V domains shown)
VH: DVQLQESGPGLVKPSQSLSLTCTVTGHSITSDYAWNWIRQFPGNKLEWVAYISYSGGTGYNPSLKSRISITRDTSKPNQFFLQLNSVTTEDTATYYCACGDYYYGPRDYWGQGTSVTVSS
VL: DILLTQSPAILSVSPGERVSFSCRASQSIGTSIHWYQQRTNGSPRLLIKYASESISGIPSRFSGSGSGTDFTLSINSVESEDIADYYCQQSNYWPFTFGSGTKLEIKR
notes: also called HPV33E7 IgG1 antibody ACAB337
B2: ACAB167 (antibody, V domains shown)
VH: EVQLEESGGGLVQPKGSLKLSCTASGFPFNTYAMNWVRQAPGKGLEWVARIRTKSNNYATYYADSVKDRFTISRDDSQNMLYLQMNNLKTEDTAMYYCVRLYGYYFDYWGQGTTLTVSS
VL: DIVMTQSPEIMSASPGEKVTMTCSASSSVSFMFWYQQKSGTSPKIWIYDTSKLASGVPARFSGSGSGTSYSLTVSSMEAEDAATYYCQQWNSNPPTFGVGTKLELKR
notes: the printed entries run on into the first residues of the constant domains; also called HPV16E7 IgG2b antibody ACAB167

How the values were obtained:
[1] = molecular target: T1, HPV35 E7 protein, recombinant …; assay: ELISA and dot-blot, semiquantitative crossreactivity (++ strong positive); antigens denatured for this antibody
[2] = molecular target: T2, HPV58 E7 protein, recombinant …; assay: as above
[3] = molecular target: T3, HPV52 E7 protein, recombinant …; assay: as above
[4] = molecular target: T4, HPV38 E7 protein (beta-papillomavirus), …; assay: ELISA and dot-blot
[5] = molecular target: T5, HPV6 E7 protein (low risk type), …; assay: ELISA and dot-blot
[6] = molecular target: T6, HPV11 E7 protein (low risk type), …; assay: ELISA and dot-blot
[7] = molecular target: T7, HPV5 E7 protein (beta-papillomavirus), …; assay: ELISA and dot-blot
[8] = molecular target: T8, HPV45 E7 protein, recombinant …; assay: ELISA and dot-blot, semiquantitative crossreactivity; antigens denatured for this antibody
[9] = molecular target: T9, HPV18 E7 protein, recombinant …; assay: as above
[10] = molecular target: T10, HPV56 E7 protein, recombinant …; assay: as above
[11] = molecular target: T11, HPV51 E7 protein, recombinant …; assay: as above
[12] = molecular target: T12, HPV31 E7 protein, recombinant …; assay: ELISA and dot-blot, semiquantitative crossreactivity (++ strong positive)
Description: (§1) Using ELISA and dot-blot techniques semiquantitative crossreactivities of the isolated mAbs was analysed. For this various mAbs were tested against the accepted high risk species.

[13] = molecular target: T13, HPV33 E7 protein, recombinant …; assay: as above
Description: as §1

[14] = molecular target: T2, HPV58 E7 protein, recombinant …; assay: as above
Description: as §1

[15] = molecular target: T3, HPV52 E7 protein, recombinant …; assay: as above
Description: as §1

[16] = molecular target: T1, HPV35 E7 protein, recombinant …; assay: ELISA and dot-blot, semiquantitative crossreactivity
Description: as §1

[17] = molecular target: T8, HPV45 E7 protein, recombinant …; assay: as above
Description: as §1

[18] = molecular target: T9, HPV18 E7 protein, recombinant …; assay: as above
Description: as §1

[19] = molecular target: T10, HPV56 E7 protein, recombinant …; assay: as above
Description: as §1

[20] = molecular target: T11, HPV51 E7 protein, recombinant …; assay: as above
Description: as §1

Row | Binder | binding result [1] | binding result [2] | binding result [3] | binding result [4] | binding result [5] | binding result [6] | binding result [7] | binding result [8] | binding result [9] | binding result [10] | binding result [11] | binding result [12] | binding result [13] | binding result [14] | binding result [15] | binding result [16] | binding result [17] | binding result [18] | binding result [19] | binding result [20]
1 | B1 | binds | binds | binds | no binding | no binding | no binding | no binding | no binding | no binding | no binding | no binding | – | – | – | – | – | – | – | – | –
2 | B2 | – | – | – | no binding | no binding | no binding | no binding | – | – | – | – | binds | binds | binds | binds | no binding | no binding | no binding | no binding | no binding

Reference: patent US20150023979A1 (VALDOSPAN, published 2015)
